Reference: patent US12428446B2, “Peptide compound or pharmaceutically acceptable salt thereof” (Eyebio Korea, priority 2019, dated 2025)
Each block holds one substance with its values, some of them ahead of it. Primed or numbered codes have the meaning given here. Where no end group is shown, it is not given here. [ ]: non-standard residue; d: D form. The star is where a group is joined. Pro(4-methylene) = C=C1CN[C@H](C(=O)O)C1; Pro(4,4-F2) = O=C(O)[C@@H]1CC(F)(F)CN1; Pro(4,4-Me2) = CC1(C)CN[C@H](C(=O)O)C1; Asu′ = aspartimide (aminosuccinimide); Hyp = O=C(O)[C@@H]1C[C@@H](O)CN1; dHyp = O=C(O)[C@H]1C[C@H](O)CN1; Aib = CC(C)(N)C(=O)O; OiPr = CC(C)O*

Experiment: Evaluation of dissolution stability (content change on storage in dissolved state)
Assay type: physicochemical
Conditions: 1 mg/1 ml dissolved state, 40° C. and RH 75%

Substance: 4,4-difluoro-Pro-Gly-Gln-Asp-Gly ([Pro(4,4-F2)]GQDG) [Example 43]
Day 1 content (%): 86.75%
Day 3 content (%): 65.09%
Day 7 content (%): 48.43%
Initial content (%): 99.47%

Substance: 4,4-difluoro-Pro-Gly-Gln-Asp-Gly-Leu ([Pro(4,4-F2)]GQDGL) [Example 48]
Day 1 content (%): 84.40%
Day 3 content (%): 76.53%
Day 7 content (%): 53.82%
Initial content (%): 92.71%

Substance: 4,4-difluoro-Pro-Gly-Gln-Asp-Gly-Leu-Ala ([Pro(4,4-F2)]GQDGLA) [Example 53]
Day 1 content (%): 87.14%
Day 3 content (%): 76.02%
Day 7 content (%): 62.88%
Initial content (%): 94.88%

Substance: 4,4-dimethyl Pro-Gly-Gln-Asp-Gly-Leu ([Pro(4,4-Me2)]GQDGL) [Example 56]
Day 1 content (%): 84.52%
Day 3 content (%): 79.98%
Day 7 content (%): 51.41%
Initial content (%): 90.94%

Substance: 4,4-dimethyl Pro-Gly-Gln-Asp-Gly-Leu-Ala ([Pro(4,4-Me2)]GQDGLA) [Example 57]
Day 1 content (%): 75.20%
Day 3 content (%): 71.82%
Day 7 content (%): 53.88%
Initial content (%): 91.95%

Substance: 4-methylene-Pro-Gly-Gln-Asp-Gly-Leu ([Pro(4-methylene)]GQDGL) [Example 49]
Day 1 content (%): 86.53%
Day 3 content (%): 79.49%
Day 7 content (%): 60.01%
Initial content (%): 94.35%

Substance: 4-methylene-Pro-Gly-Gln-Asp-Gly-Leu-Ala ([Pro(4-methylene)]GQDGLA) [Example 54]
Day 1 content (%): 83.66%
Day 3 content (%): 73.59%
Day 7 content (%): 62.48%
Initial content (%): 95.42%

Substance: Asu-Gly-Leu-Ala-Gly-Pro-Lys ([Asu′]GLAGPK) [Example 105]
Day 1 content (%): 54.80%
Day 3 content (%): 41.83%
Day 7 content (%): 31.24%
Initial content (%): 89.11%

Substance: D Hyp-Gly-Gln-Asp-Gly-Leu ([dHyp]GQDGL) [Example 45]
Day 1 content (%): 86.74%
Day 3 content (%): 69.07%
Day 7 content (%): 56.03%
Initial content (%): 94.45%

Substance: D Hyp-Gly-Gln-Asp-Gly-Leu-Ala ([dHyp]GQDGLA) [Example 50]
Day 1 content (%): 89.44%
Day 3 content (%): 80.15%
Day 7 content (%): 56.11%
Initial content (%): 96.67%

Substance: DGLAGP [Example 31]
Day 1 content (%): 85.08%
Day 3 content (%): 78.24%
Day 7 content (%): 60.99%
Initial content (%): 91.42%

Substance: DGLAGPK [Example 19]
Day 1 content (%): 89.94%
Day 3 content (%): 79.26%
Day 7 content (%): 71.50%
Initial content (%): 95.90%

Substance: GLAGPK [Example 26]
Day 1 content (%): 89.41%
Day 3 content (%): 87.99%
Day 7 content (%): 85.43%
Initial content (%): 92.17%

Substance: GQDGLA [Example 29]
Day 1 content (%): 93.74%
Day 3 content (%): 92.16%
Day 7 content (%): 90.82%
Initial content (%): 95.19%

Substance: Gln-Asu-Gly-Leu-Ala-Gly (Q[Asu′]GLAG) [Example 118]
Day 1 content (%): 92.71%
Day 3 content (%): 85.67%
Day 7 content (%): 79.33%
Initial content (%): 96.15%

Substance: Hyp-Ala-Gln-Asp-Gly ([Hyp]AQDG) [Example 73]
Day 1 content (%): 89.07%
Day 3 content (%): 82.64%
Day 7 content (%): 75.49%
Initial content (%): 92.11%

Substance: Hyp-Gly-D Gln-Asp-Gly ([Hyp]G[dQ]DG) [Example 58]
Day 1 content (%): 98.01%
Day 3 content (%): 97.85%
Day 7 content (%): 97.56%
Initial content (%): 98.03%

Substance: Hyp-Gly-Gln-Aib-Gly-Leu ([Hyp]GQ[Aib]GL) [Example 84]
Day 1 content (%): 97.91%
Day 3 content (%): 97.29%
Day 7 content (%): 96.49%
Initial content (%): 97.78%

Substance: Hyp-Gly-Gln-Ala-Gly ([Hyp]GQAG) [Example 13]
Day 1 content (%): 98.39%
Day 3 content (%): 98.04%
Day 7 content (%): 97.64%
Initial content (%): 98.51%

Substance: Hyp-Gly-Gln-Ala-Gly-Leu ([Hyp]GQAGL) [Example 122]
Day 1 content (%): 98.66%
Day 3 content (%): 98.56%
Day 7 content (%): 98.27%
Initial content (%): 98.82%

Substance: Hyp-Gly-Gln-Ala-Gly-Leu-Ala ([Hyp]GQAGLA) [Example 14]
Day 1 content (%): 96.58%
Day 3 content (%): 96.07%
Day 7 content (%): 95.55%
Initial content (%): 97.13%

Substance: Hyp-Gly-Gln-Ala-Leu ([Hyp]GQAL) [Example 120]
Day 1 content (%): 98.87%
Day 3 content (%): 98.73%
Day 7 content (%): 98.44%
Initial content (%): 99.07%

Substance: Hyp-Gly-Gln-Ala-Leu-Leu ([Hyp]GQALL) [Example 123]
Day 1 content (%): 99.14%
Day 3 content (%): 98.98%
Day 7 content (%): 98.86%
Initial content (%): 99.26%

Substance: Hyp-Gly-Gln-Ala-Val ([Hyp]GQAV) [Example 119]
Day 1 content (%): 96.33%
Day 3 content (%): 96.18%
Day 7 content (%): 95.89%
Initial content (%): 96.39%

Substance: Hyp-Gly-Gln-Ala-Val-Leu ([Hyp]GQAVL) [Example 124]
Day 1 content (%): 99.22%
Day 3 content (%): 99.11%
Day 7 content (%): 98.97%
Initial content (%): 99.40%

Substance: Hyp-Gly-Gln-Asn-Gly-Leu ([Hyp]GQNGL) [Example 81]
Day 1 content (%): 93.01%
Day 3 content (%): 92.10%
Day 7 content (%): 89.51%
Initial content (%): 95.87%

Substance: Hyp-Gly-Gln-Asn-Gly-Leu-Ala ([Hyp]GQNGLA) [Example 79]
Day 1 content (%): 97.87%
Day 3 content (%): 81.04%
Day 7 content (%): 76.89%
Initial content (%): 94.36%

Substance: Hyp-Gly-Gln-Asp (isopropyl ester)-Gly ([Hyp]GQD(OiPr)G) [Example 115]
Day 1 content (%): 88.57%
Day 3 content (%): 82.00%
Day 7 content (%): 71.64%
Initial content (%): 92.71%

Day 1 content (%): 85.18%
Day 3 content (%): 72.44%
Day 7 content (%): 91.84%
Initial content (%): 98.00%
Substance: Hyp-Gly-Gln-Asp (isopropyl ester)-Gly (isopropyl ester) [Example 110]

Substance: Hyp-Gly-Gln-Asp (isopropyl ester)-Gly-Leu ([Hyp]GQD(OiPr)GL) [Example 116]
Day 1 content (%): 85.82%
Day 3 content (%): 84.31%
Day 7 content (%): 83.50%
Initial content (%): 88.64%

Day 1 content (%): 92.78%
Day 3 content (%): 86.07%
Day 7 content (%): 80.91%
Initial content (%): 95.34%
Substance: Hyp-Gly-Gln-Asp (isopropyl ester)-Gly-Leu (isopropyl ester) [Example 112]

Substance: Hyp-Gly-Gln-Asp (isopropyl ester)-Gly-Leu-Ala ([Hyp]GQD(OiPr)GLA) [Example 117]
Day 1 content (%): 90.61%
Day 3 content (%): 85.37%
Day 7 content (%): 76.88%
Initial content (%): 94.77%

Day 1 content (%): 75.01%
Day 3 content (%): 56.84%
Day 7 content (%): 32.74%
Initial content (%): 84.91%
Substance: Hyp-Gly-Gln-Asp (isopropyl ester)-Gly-Leu-Ala (isopropyl ester) [Example 114]

Substance: Hyp-Gly-Gln-Asp-Aib ([Hyp]GQD[Aib]) [Example 85]
Day 1 content (%): 92.08%
Day 3 content (%): 88.07%
Day 7 content (%): 75.04%
Initial content (%): 92.62%

Substance: Hyp-Gly-Gln-Asp-Aib-Leu-Ala ([Hyp]GQD[Aib]LA) [Example 83]
Day 1 content (%): 95.35%
Day 3 content (%): 94.70%
Day 7 content (%): 94.00%
Initial content (%): 95.42%

Substance: Hyp-Gly-Gln-Asp-Ala ([Hyp]GQDA) [Example 33]
Day 1 content (%): 96.68%
Day 3 content (%): 89.94%
Day 7 content (%): 86.76%
Initial content (%): 99.46%

Substance: Hyp-Gly-Gln-Asp-Ala-Leu ([Hyp]GQDAL) [Example 36]
Day 1 content (%): 94.13%
Day 3 content (%): 90.58%
Day 7 content (%): 85.95%
Initial content (%): 95.40%

Substance: Hyp-Gly-Gln-Asp-Ala-Leu-Ala ([Hyp]GQDALA) [Example 39]
Day 1 content (%): 91.76%
Day 3 content (%): 88.16%
Day 7 content (%): 85.50%
Initial content (%): 93.03%

Day 1 content (%): 81.47%
Day 3 content (%): 75.61%
Day 7 content (%): 68.25%
Initial content (%): 89.54%
Substance: Hyp-Gly-Gln-Asp-Gly (isopropyl ester) [Example 106]

Substance: Hyp-Gly-Gln-Asp-Gly-D Leu ([Hyp]GQDG[dL]) [Example 62]
Day 1 content (%): 92.60%
Day 3 content (%): 84.99%
Day 7 content (%): 70.41%
Initial content (%): 97.24%

Substance: Hyp-Gly-Gln-Asp-Gly-D Leu-Ala ([Hyp]GQDG[dL]A) [Example 65]
Day 1 content (%): 92.97%
Day 3 content (%): 86.96%
Day 7 content (%): 75.40%
Initial content (%): 95.64%

Day 1 content (%): 76.34%
Day 3 content (%): 65.41%
Day 7 content (%): 58.41%
Initial content (%): 87.55%
Substance: Hyp-Gly-Gln-Asp-Gly-Leu (isopropyl ester) [Example 107]

Substance: Hyp-Gly-Gln-Asp-Gly-Leu-Ala ([Hyp]GQDGLA) [Example 12]
Day 1 content (%): 89.90%
Day 3 content (%): 79.04%
Day 7 content (%): 58.75%
Initial content (%): 95.31%

Substance: Hyp-Gly-Gln-Asp-Gly-Leu-Ala (isopropyl ester) ([Hyp]GQDGLA-OiPr) [Example 108]
Day 1 content (%): 67.07%
Day 3 content (%): 62.81%
Day 7 content (%): 59.24%
Initial content (%): 79.49%

Substance: Hyp-Gly-Gln-Asp-Gly-Leu-Ala-Gly ([Hyp]GQDGLAG) [Example 15]
Day 1 content (%): 91.06%
Day 3 content (%): 81.63%
Day 7 content (%): 70.56%
Initial content (%): 91.84%
